Assay results taken from publication PMC11804575.

Biological target: heat shock protein 90 (HSP90) (UniProt P07900)
Assay: co-immunoprecipitation (anti-HA) with immunoblot quantification (ImageJ)
Conditions: HEK293T cells; endogenous HSP90; n = 3; parent: est. 1.0; read off a plot

response (HSP90/HA-BRAF normalized to V600E): 12
Substance: BRAF^V600E (from UniProt P15056) R509H; 621APE-AAE
